This passage reports abundance fitness results from the Human Domainome abundance scans (Beltran et al. 2025).

B1: Unconventional myosin-Ie, residues 1051 to 1108; numbered along this chain, Q12965 (parent)
chain: PQVPQCKALYAYDAQDTDELSFNANDIIDIIKEDPSGWWTGRLRGKQGLFPNNYVTKI

± gives the uncertainty stated by the source.

This data set covers variants of B1. Put plainly: abundance fitness (aPCA) (normalised: wild type 0, dead -1); higher = more abundant; growth selection in yeast, the domain comes from the species named. The following applies: Homo sapiens.
With PQVPQCKALYAYDAQDTDELSFNANDNIDIIKEDPSGWWTGRLRGKQGLFPNNYVTKI [I27N], the abundance fitness was -0.233 ± 0.093. With PQVPQCKALYAYDAQDTDELSFNANDPIDIIKEDPSGWWTGRLRGKQGLFPNNYVTKI [I27P] the figure was -0.681 ± 0.24; with PQVPQCKALYAYDAQDTDELSFNANDKIDIIKEDPSGWWTGRLRGKQGLFPNNYVTKI [I27K], -0.228 ± 0.042.

With PQVPQCKALYAYDAQDTDELSFNANDMIDIIKEDPSGWWTGRLRGKQGLFPNNYVTKI [I27M], the abundance fitness is -0.156 ± 0.065.

Consider PQVPQCKALYAYDAQDTDELSFNANDLIDIIKEDPSGWWTGRLRGKQGLFPNNYVTKI [I27L], for which the abundance fitness is -0.15 ± 0.047. Then PQVPQCKALYAYDAQDTDELSFNANDTIDIIKEDPSGWWTGRLRGKQGLFPNNYVTKI [I27T], with -0.26 ± 0.074; and PQVPQCKALYAYDAQDTDELSFNANDSIDIIKEDPSGWWTGRLRGKQGLFPNNYVTKI [I27S], with -0.655 ± 0.087; and PQVPQCKALYAYDAQDTDELSFNANDFIDIIKEDPSGWWTGRLRGKQGLFPNNYVTKI [I27F], with -0.274 ± 0.099. Then PQVPQCKALYAYDAQDTDELSFNANDCIDIIKEDPSGWWTGRLRGKQGLFPNNYVTKI [I27C], with -0.261 ± 0.059; and PQVPQCKALYAYDAQDTDELSFNANDRIDIIKEDPSGWWTGRLRGKQGLFPNNYVTKI [I27R], with -0.374 ± 0.049; and PQVPQCKALYAYDAQDTDELSFNANDYIDIIKEDPSGWWTGRLRGKQGLFPNNYVTKI [I27Y], with -0.19 ± 0.042. With PQVPQCKALYAYDAQDTDELSFNANDGIDIIKEDPSGWWTGRLRGKQGLFPNNYVTKI [I27G], the abundance fitness was -0.927 ± 0.062. With PQVPQCKALYAYDAQDTDELSFNANDEIDIIKEDPSGWWTGRLRGKQGLFPNNYVTKI [I27E] the figure was -0.432 ± 0.058; with PQVPQCKALYAYDAQDTDELSFNANDAIDIIKEDPSGWWTGRLRGKQGLFPNNYVTKI [I27A], -0.47 ± 0.057; with PQVPQCKALYAYDAQDTDELSFNANDHIDIIKEDPSGWWTGRLRGKQGLFPNNYVTKI [I27H], -0.306 ± 0.069. With PQVPQCKALYAYDAQDTDELSFNANDVIDIIKEDPSGWWTGRLRGKQGLFPNNYVTKI [I27V] the figure was -0.085 ± 0.049; with PQVPQCKALYAYDAQDTDELSFNANDWIDIIKEDPSGWWTGRLRGKQGLFPNNYVTKI [I27W], -0.466 ± 0.048. For the variant PQVPQCKALYAYDAQDTDELSFNANDQIDIIKEDPSGWWTGRLRGKQGLFPNNYVTKI [I27Q], the abundance fitness was -0.327 ± 0.077. With PQVPQCKALYAYDAQDTDELSFNANDDIDIIKEDPSGWWTGRLRGKQGLFPNNYVTKI [I27D] the figure was -0.618 ± 0.038; with PQVPQCKALYAYDAQDTDELSFNANDIIDHIKEDPSGWWTGRLRGKQGLFPNNYVTKI [I30H], -0.765 ± 0.21.

In the case of PQVPQCKALYAYDAQDTDELSFNANDIIDAIKEDPSGWWTGRLRGKQGLFPNNYVTKI [I30A], the abundance fitness was -0.78 ± 0.12. With PQVPQCKALYAYDAQDTDELSFNANDIIDCIKEDPSGWWTGRLRGKQGLFPNNYVTKI [I30C] the figure was -0.378 ± 0.04; with PQVPQCKALYAYDAQDTDELSFNANDIIDDIKEDPSGWWTGRLRGKQGLFPNNYVTKI [I30D], -0.628 ± 0.24; with PQVPQCKALYAYDAQDTDELSFNANDIIDKIKEDPSGWWTGRLRGKQGLFPNNYVTKI [I30K], -1.04 ± 0.17.

Consider PQVPQCKALYAYDAQDTDELSFNANDIIDGIKEDPSGWWTGRLRGKQGLFPNNYVTKI [I30G], for which the abundance fitness was -0.719 ± 0.071. With PQVPQCKALYAYDAQDTDELSFNANDIIDEIKEDPSGWWTGRLRGKQGLFPNNYVTKI [I30E] the figure was -0.864 ± 0.069; with PQVPQCKALYAYDAQDTDELSFNANDIIDFIKEDPSGWWTGRLRGKQGLFPNNYVTKI [I30F], -0.736 ± 0.33; with PQVPQCKALYAYDAQDTDELSFNANDITDIIKEDPSGWWTGRLRGKQGLFPNNYVTKI [I28T], -0.386 ± 0.29. With PQVPQCKALYAYDAQDTDELSFNANDILDIIKEDPSGWWTGRLRGKQGLFPNNYVTKI [I28L], the abundance fitness worked out at 0.237 ± 0.46.

On to PQVPQCKALYAYDAQDTDELSFNANDIVDIIKEDPSGWWTGRLRGKQGLFPNNYVTKI [I28V], for which the abundance fitness is -0.472 ± 0.45. Then PQVPQCKALYAYDAQDTDELSFNAWDIIDIIKEDPSGWWTGRLRGKQGLFPNNYVTKI [N25W], with -0.224 ± 0.056; and PQVPQCKALYAYDAQDTDELSFNAYDIIDIIKEDPSGWWTGRLRGKQGLFPNNYVTKI [N25Y], with -0.541 ± 0.11; and PQVPQCKALYAYDAQDTDELSFNAGDIIDIIKEDPSGWWTGRLRGKQGLFPNNYVTKI [N25G], with -0.046 ± 0.041. With PQVPQCKALYAYDAQDTDELSFNAMDIIDIIKEDPSGWWTGRLRGKQGLFPNNYVTKI [N25M] the figure was -0.151 ± 0.051; with PQVPQCKALYAYDAQDTDELSFNADDIIDIIKEDPSGWWTGRLRGKQGLFPNNYVTKI [N25D], -0.048 ± 0.068.

Consider PQVPQCKALYAYDAQDTDELSFNAHDIIDIIKEDPSGWWTGRLRGKQGLFPNNYVTKI [N25H], for which the abundance fitness is -0.19 ± 0.082. With PQVPQCKALYAYDAQDTDELSFNAIDIIDIIKEDPSGWWTGRLRGKQGLFPNNYVTKI [N25I] the figure was -0.833 ± 0.075; with PQVPQCKALYAYDAQDTDELSFNARDIIDIIKEDPSGWWTGRLRGKQGLFPNNYVTKI [N25R], -0.142 ± 0.033; with PQVPQCKALYAYDAQDTDELSFNAQDIIDIIKEDPSGWWTGRLRGKQGLFPNNYVTKI [N25Q], -0.058 ± 0.054. Then PQVPQCKALYAYDAQDTDELSFNATDIIDIIKEDPSGWWTGRLRGKQGLFPNNYVTKI [N25T], with -0.215 ± 0.065. Then PQVPQCKALYAYDAQDTDELSFNAPDIIDIIKEDPSGWWTGRLRGKQGLFPNNYVTKI [N25P], with -0.878 ± 0.12; and PQVPQCKALYAYDAQDTDELSFNAEDIIDIIKEDPSGWWTGRLRGKQGLFPNNYVTKI [N25E], with -0.117 ± 0.064; and PQVPQCKALYAYDAQDTDELSFNAFDIIDIIKEDPSGWWTGRLRGKQGLFPNNYVTKI [N25F], with -0.302 ± 0.063. With PQVPQCKALYAYDAQDTDELSFNAKDIIDIIKEDPSGWWTGRLRGKQGLFPNNYVTKI [N25K], the abundance fitness was -0.198 ± 0.064. With PQVPQCKALYAYDAQDTDELSFNAVDIIDIIKEDPSGWWTGRLRGKQGLFPNNYVTKI [N25V] the figure was -0.753 ± 0.073.
